For experiment [1], the target named is T1, S. cerevisiae β’WD40 domain (N-terminal WD40 domain of β’-COPI), wild type (S. cerevisiae, UniProt P41811 1-300).
T1 sequence: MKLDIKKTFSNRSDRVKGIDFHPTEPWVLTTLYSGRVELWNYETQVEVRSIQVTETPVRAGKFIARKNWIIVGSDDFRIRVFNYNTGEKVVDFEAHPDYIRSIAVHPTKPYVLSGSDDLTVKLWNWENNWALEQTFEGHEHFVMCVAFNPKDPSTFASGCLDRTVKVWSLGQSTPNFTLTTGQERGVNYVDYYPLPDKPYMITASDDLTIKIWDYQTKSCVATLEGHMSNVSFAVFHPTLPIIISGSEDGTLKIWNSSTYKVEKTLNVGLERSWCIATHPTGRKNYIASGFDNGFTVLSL
In words: crystal structure.

Experiment [2] has as its target T2, S. pombe αWD40 domain (N-terminal WD40 domain of α-COPI), wild type (S. pombe, UniProt Q96WV5 1-327).
T2 sequence: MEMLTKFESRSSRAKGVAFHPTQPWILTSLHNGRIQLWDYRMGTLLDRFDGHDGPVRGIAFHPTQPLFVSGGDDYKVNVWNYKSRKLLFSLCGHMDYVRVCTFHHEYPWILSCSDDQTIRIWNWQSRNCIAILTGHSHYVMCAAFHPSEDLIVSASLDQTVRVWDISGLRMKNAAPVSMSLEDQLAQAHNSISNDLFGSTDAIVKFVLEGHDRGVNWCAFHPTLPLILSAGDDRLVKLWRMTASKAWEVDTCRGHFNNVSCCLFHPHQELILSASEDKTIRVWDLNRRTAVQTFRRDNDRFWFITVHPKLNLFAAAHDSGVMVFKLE
In words: NMR titration.

B1: wild-type SARS-CoV-2 S tail heptapeptide (residues 1267-1273), as co-crystallised (peptide)
peptide: GVKLHYT
For B1, in experiment [1], the binding result is given as “binds”.

B2: 15N-labeled wild-type SARS-CoV-2 S C-terminal tail 21-mer peptide (NMR) (peptide)
peptide: not shown
modifications: 15N isotope label
Consider B2, for which the binding result in experiment [2] is reported as “binds”.

The values are drawn from publication doi:10.1101/2023.03.09.531992 (bioRxiv, 2023).
